Our source for the Mean binding response values is patent US20230235013A1 (MABSOLVE, published 2023).

Residue numbers refer to the chain shown, from its start. Names and notes keep the numbering of the source.

First the molecules themselves.
B1: anti-CD20 human IgG1 L234Q/L235N/G236R (antibody)
heavy: QVQLQQPGAELVKPGASVKMSCKASGYTFTSYNMHWVKQTPGRGLEWIGAIYPGNGDTSYNQKFKGKATLTADKSSSTAYMQLSSLTSEDSAVYYCARSTYYGGDWYFNVWGAGTTVTVSSASTKGPSVFPLAPSSKSTSGGTAALGCLVKDYFPEPVTVSWNSGALTSGVHTFPAVLQSSGLYSLSSVVTVPSSSLGTQTYICNVNHKPSNTKVDKKVEPKSCDKTHTCPPCPAPEQNRGPSVFLFPPKPKDTLMISRTPEVTCVVVDVSHEDPEVKFNWYVDGVEVHNAKTKPREEQYNSTYRVVSVLTVLHQDWLNGKEYKCKVSNKALPAPIEKTISKAKGQPREPQVYTLPPSRDELTKNQVSLTCLVKGFYPSDIAVEWESNGQPENNYKTTPPVLDSDGSFFLYSKLTVDKSRWQQGNVFSCSVMHEALHNHYTQKSLSLSPGK
light: QIVLSQSPAILSASPGEKVTMTCRASSSVSYIHWFQQKPGSSPKPWIYATSNLASGVPVRFSGSGSGTSYSLTISRVEAEDAATYYCQQWTSNPPTFGGGTKLEIKRTVAAPSVFIFPPSDEQLKSGTASVVCLLNNFYPREAKVQWKVDNALQSGNSQESVTEQDSKDSTYSLSSTLTLSKADYEKHKVYACEVTHQGLSSPVTKSFNRGEC
notes: copies: 2 + 2
B2: anti-CD20 human IgG1 L234S/L235A/G236R (antibody)
heavy: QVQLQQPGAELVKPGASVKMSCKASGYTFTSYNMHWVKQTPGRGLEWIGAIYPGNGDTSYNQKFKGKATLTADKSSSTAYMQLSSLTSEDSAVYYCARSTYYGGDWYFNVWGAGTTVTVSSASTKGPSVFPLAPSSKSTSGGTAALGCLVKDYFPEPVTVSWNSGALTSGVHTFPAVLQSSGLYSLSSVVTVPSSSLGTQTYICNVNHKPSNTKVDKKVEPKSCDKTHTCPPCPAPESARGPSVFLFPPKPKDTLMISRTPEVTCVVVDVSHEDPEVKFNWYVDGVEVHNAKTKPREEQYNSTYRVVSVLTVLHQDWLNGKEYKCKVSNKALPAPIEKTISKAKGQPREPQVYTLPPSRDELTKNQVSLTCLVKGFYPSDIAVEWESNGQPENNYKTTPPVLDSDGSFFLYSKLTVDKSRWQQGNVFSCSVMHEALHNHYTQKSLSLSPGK
light: B1 light
notes: also called 1-137; copies: 2 + 2
B3: anti-CD20 human IgG1 L234R/L235S/G236R (antibody)
heavy: B1 heavy with Q238R, N239S
light: B1 light
notes: copies: 2 + 2
B4: anti-CD20 human IgG1 L234S/L235K/G236R (antibody)
heavy: B1 heavy with Q238S, N239K
light: B1 light
notes: copies: 2 + 2
B5: anti-CD20 human IgG1 L234R/G236R (antibody)
heavy: not shown
light: B1 light
notes: also called 2-41; copies: 2 + 2
B6: anti-CD20 human IgG1 L234K/L235R/G236R (antibody)
heavy: B1 heavy with Q238K, N239R
light: B1 light
notes: also called 1-88; 2-23; copies: 2 + 2
B7: anti-CD20 human IgG1 L234T/L235R/G236R (antibody)
heavy: B1 heavy with Q238T, N239R
light: B1 light
notes: also called 2-61; copies: 2 + 2
B8: anti-CD20 human IgG1 L234R/L235Q/G236R (antibody)
heavy: B1 heavy with Q238R, N239Q
light: B1 light
notes: also called 2-42; copies: 2 + 2
B9: anti-CD20 human IgG1 L234S/L235N/G236R (antibody)
heavy: B1 heavy with Q238S
light: B1 light
notes: copies: 2 + 2
B10: anti-CD20 human IgG1 L234Q/L235V/G236R (antibody)
heavy: B1 heavy with N239V
light: B1 light
notes: copies: 2 + 2
B11: anti-CD20 human IgG1 L234S/L235E/G236R (antibody)
heavy: B1 heavy with Q238S, N239E
light: B1 light
notes: also called 2-46; copies: 2 + 2
B12: anti-CD20 human IgG1 L234R/L235G/G236R (antibody)
heavy: B1 heavy with Q238R, N239G
light: B1 light
notes: copies: 2 + 2
B13: anti-CD20 human IgG1 L234D/L235K/G236R (antibody)
heavy: B1 heavy with Q238D, N239K
light: B1 light
notes: also called 1-23; 2-7; copies: 2 + 2
B14: anti-CD20 human IgG1 L234T/L235E/G236R (antibody)
heavy: B1 heavy with Q238T, N239E
light: B1 light
notes: copies: 2 + 2
B15: anti-CD20 human IgG1 L234S/L235R/G236R (antibody)
heavy: B1 heavy with Q238S, N239R
light: B1 light
notes: also called 2-51; copies: 2 + 2
B16: anti-CD20 human IgG1 L234R/L235V/G236R (antibody)
heavy: B1 heavy with Q238R, N239V
light: B1 light
notes: copies: 2 + 2
B17: anti-CD20 human IgG1 L234K/L235S/G236R (antibody)
heavy: B1 heavy with Q238K, N239S
light: B1 light
notes: also called 1-89; 2-24; copies: 2 + 2
B18: anti-CD20 human IgG1 L234S/L235Q/G236R (antibody)
heavy: B1 heavy with Q238S, N239Q
light: B1 light
notes: copies: 2 + 2
B19: anti-CD20 human IgG1 L234S/L235S/G236R (antibody)
heavy: B1 heavy with Q238S, N239S
light: B1 light
notes: also called 1-149; copies: 2 + 2
B20: anti-CD20 human IgG1 L234R/L235A/G236R (antibody)
heavy: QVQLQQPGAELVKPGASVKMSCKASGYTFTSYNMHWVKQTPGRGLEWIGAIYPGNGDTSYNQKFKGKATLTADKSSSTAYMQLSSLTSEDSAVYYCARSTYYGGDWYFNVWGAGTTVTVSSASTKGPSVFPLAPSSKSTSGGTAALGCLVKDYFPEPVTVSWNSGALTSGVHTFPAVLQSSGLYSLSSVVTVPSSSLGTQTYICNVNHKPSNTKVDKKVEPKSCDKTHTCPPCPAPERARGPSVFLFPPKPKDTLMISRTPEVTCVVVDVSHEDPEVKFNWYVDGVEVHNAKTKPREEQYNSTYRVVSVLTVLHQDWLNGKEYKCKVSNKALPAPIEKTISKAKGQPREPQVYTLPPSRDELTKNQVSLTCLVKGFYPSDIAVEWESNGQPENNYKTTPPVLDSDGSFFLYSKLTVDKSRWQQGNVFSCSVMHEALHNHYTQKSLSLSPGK
light: B1 light
notes: copies: 2 + 2
B21: anti-CD20 human IgG1 L234R/L235N/G236R (antibody)
heavy: B1 heavy with Q238R
light: B1 light
notes: copies: 2 + 2
B22: anti-CD20 human IgG1 L234A/L235A (LALA) (antibody)
heavy: not shown
light: B1 light
notes: also called 10.16; copies: 2 + 2
B23: anti-CD20 human IgG1 L234Q/L235Q/G236R (antibody)
heavy: B1 heavy with N239Q
light: B1 light
notes: also called 2-31; copies: 2 + 2
B24: anti-CD20 human IgG1 L234T/L235A/G236R (antibody)
heavy: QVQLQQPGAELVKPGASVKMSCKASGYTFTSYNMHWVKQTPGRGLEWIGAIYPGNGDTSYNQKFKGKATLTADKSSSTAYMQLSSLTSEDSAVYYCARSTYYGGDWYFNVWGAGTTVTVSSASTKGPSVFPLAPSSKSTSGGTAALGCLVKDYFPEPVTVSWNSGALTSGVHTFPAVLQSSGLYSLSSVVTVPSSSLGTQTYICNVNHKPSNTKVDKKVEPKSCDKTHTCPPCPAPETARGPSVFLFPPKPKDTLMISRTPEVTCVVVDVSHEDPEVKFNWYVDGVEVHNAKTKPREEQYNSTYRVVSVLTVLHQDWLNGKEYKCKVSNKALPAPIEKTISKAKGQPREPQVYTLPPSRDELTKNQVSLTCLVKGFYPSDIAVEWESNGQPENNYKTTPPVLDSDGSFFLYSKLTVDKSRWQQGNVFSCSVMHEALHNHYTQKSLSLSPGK
light: B1 light
notes: also called 1-152; 2-54; copies: 2 + 2
B25: anti-CD20 human IgG1 L234S/L235M/G236R (antibody)
heavy: B1 heavy with Q238S, N239M
light: B1 light
notes: copies: 2 + 2
B26: anti-CD20 human IgG1 L234K/L235T/G236R (antibody)
heavy: B1 heavy with Q238K, N239T
light: B1 light
notes: also called 1-90; 2-25; copies: 2 + 2
B27: anti-CD20 human IgG1 L234T/L235G/G236R (antibody)
heavy: B1 heavy with Q238T, N239G
light: B1 light
notes: copies: 2 + 2
B28: anti-CD20 human IgG1 L234T/L235N/G236R (antibody)
heavy: B1 heavy with Q238T
light: B1 light
notes: copies: 2 + 2
B29: anti-CD20 human IgG1 L234R/L235E/G236R (antibody)
heavy: B1 heavy with Q238R, N239E
light: B1 light
notes: also called 2-37; copies: 2 + 2
B30: anti-CD20 human IgG1 L234S/L235I/G236R (antibody)
heavy: B1 heavy with Q238S, N239I
light: B1 light
notes: also called 2-49; copies: 2 + 2
B31: anti-CD20 human IgG1 L234T/L235M/G236R (antibody)
heavy: B1 heavy with Q238T, N239M
light: B1 light
notes: also called 1-160; copies: 2 + 2

For the experiment, the target named is T1, Histidine-tagged recombinant human FcγRI (CD64) (human, UniProt P12314 16-288).
T1 construct: bought; also called Sino Biological Cat. No. 12056-H08H
Briefly: SPR, culture supernatant, captured His-FcγRI.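 Note: biacore T200 SPR at 25 °C, anti-His capture, supernatants of HEK293 cells expressing IgG1 Fc variants injected 1 min, reference-subtracted response read 55 s after injection start.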
Consider B1, for which the Mean binding response stood at 26.8 RU.
In the case of B2 it was 29.6 RU; in that of B3, 34 RU.
For the molecule B4, the Mean binding response amounted to 23.8 RU.
In the case of B5 it was 21.1 RU.
For B6 the value was 13.9 RU; for B7, 13.6 RU.
For B8, the Mean binding response is 10.1 RU.
In the case of B9 it was 22.7 RU; in that of B10, 20.9 RU; in that of B11, 11.6 RU.
In the case of B12 it was 31.9 RU; in that of B13, 20.9 RU.
For B14 the value was 24 RU; for B15, 11.1 RU; for B16, 32.5 RU.
For the molecule B17, the Mean binding response was 16.1 RU.
For B18 the value was 29.6 RU; for B19, 25.6 RU.
As for B20, the Mean binding response amounted to 28.1 RU.
In the case of B21 it was 10.8 RU; in that of B22, 65 RU; in that of B23, 16.8 RU.
As to B24, the Mean binding response was determined as 11.8 RU.
For B25 the value was 32 RU; for B26, 15.8 RU; for B27, 26.9 RU.
For B28 the value was 22.4 RU; for B29, 16.7 RU; for B30, 12 RU.
For B31 the value was 31.6 RU.
